According to paper PMC4029521:

Test system: T1, AirR (Staphylococcus aureus NCTC8325), ORF:f68b8ed8
T1 sequence: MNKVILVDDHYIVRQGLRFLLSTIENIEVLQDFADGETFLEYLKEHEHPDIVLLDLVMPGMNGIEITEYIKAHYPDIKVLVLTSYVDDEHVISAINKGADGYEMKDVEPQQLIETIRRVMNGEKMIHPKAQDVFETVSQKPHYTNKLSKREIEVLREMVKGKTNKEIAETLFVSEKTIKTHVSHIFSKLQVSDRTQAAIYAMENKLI
Assay: EMSA

Sequence | binding
GAATCGCGAACATGGACGAACGATTAGTTGTTAATTTTGAAAATTTATAAAAGGTTAAACGAATGCAGTGAGAGATGTCATTTTAATATCAATGTATGGCTATTTTGTAATGACAATGTAATGAGTTTAGTAAAACATTTCGGGAATATTAAATAGTTGGAAAATGAGAATTAAATCCTTTACTCAGTTGTCTAATTCTTTTAGTATGTGCAGTACAGTTTAATTGAAAACTAACTTTAACTTTAATGGAGGATGTTTTATACATGAAAAAATTAACAGCAGCAGCGATTGC (double strand) [lytM promoter (p-lytM)] | binds
AGCTACACGTAATTTCGCGCTTCGTGCTCTGTTATTGTCATCTAAATCTTCTTCTGTAGCGGTAATCGGTTTACGATTAACACGCTTTAACTTAGGTGTATATGCTTCTGGTATAACTGGTAATCCTCTTGGTACCTCTGGACCTTTTTCATATTCTTGGAACACCTGTTTACATAAACGATCTTCTAAAGAATGGAAAGTGATTACCGAAATCCTGCCATCTACTTTCACTAATTCAATCGCTTGTTCTATTGAATC (double strand) [pbp1 promoter (p-pbp1)] | binds
